Data reported in patent US20090070901.

Biological target: des(methyl) spinach Rubisco (ribulose-1,5-bisphosphate carboxylase-oxygenase holoenzyme) (UniProt P00875)

## wild-type pea Rubisco large subunit epsilon-N-methyltransferase (pea Rubisco LSMT)
  carboxylase activity at saturating and low CO2: showed no difference in activity between native Rubisco and Rubisco with bound pea Rubisco LSMT alone
